Measurements reported in patent US20190085075A1 (published 2019).

Key:
[1] = molecular target: T1, soluble human LAG-3 fusion protein (extracellular domain of human LAG-3 fused to murine IgG2a) (human; murine, UniProt P18627 23-450); experiment: Biacore; human LAG-3 ECD-murine IgG2a captured on Fab2 goat-anti-mouse Fc, antibody injected
T1 construct: also called human LAG-3-murine IgG2a fusion protein; not shown: murine IgG2a
T1 sequence: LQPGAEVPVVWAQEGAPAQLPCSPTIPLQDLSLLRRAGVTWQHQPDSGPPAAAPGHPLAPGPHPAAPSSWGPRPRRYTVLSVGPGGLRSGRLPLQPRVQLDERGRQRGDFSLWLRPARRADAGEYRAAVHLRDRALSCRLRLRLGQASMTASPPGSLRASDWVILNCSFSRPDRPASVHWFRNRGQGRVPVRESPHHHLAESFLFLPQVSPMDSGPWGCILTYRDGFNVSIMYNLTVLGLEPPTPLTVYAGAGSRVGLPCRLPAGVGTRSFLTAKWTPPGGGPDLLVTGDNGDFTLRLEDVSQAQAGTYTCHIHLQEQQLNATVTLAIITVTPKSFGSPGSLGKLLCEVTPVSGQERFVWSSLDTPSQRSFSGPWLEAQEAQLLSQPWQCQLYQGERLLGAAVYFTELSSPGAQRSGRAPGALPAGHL

[2] = molecular target: T2, soluble cynomolgus monkey LAG-3 fusion protein (extracellular domain of cynomolgus monkey LAG-3 fused to … (cynomolgus monkey; murine); experiment: Biacore; cynomolgus LAG-3 ECD-murine IgG2a captured on Fab2 goat-anti-mouse Fc, antibody injected
T2 construct: extracellular domain; also called cynomolgus LAG-3-murine IgG2a fusion protein

[3] = molecular target: T3, His-tagged soluble human LAG-3 (shLAG-3-His) (human, UniProt P18627 23-450); experiment: Biacore; antibody captured (capture surface not marked for this row), shLAG-3-His injected
T3 construct: also called soluble human LAG-3-His fusion protein; extracellular domain of human LAG-3 fused to a His tag; not shown: His tag
T3 sequence: T1 sequence

B1: LAG-3 mAb A (25F7, BMS-986016, Medarex/BMS) (antibody, V domains shown)
VH: QVQLQQWGAGLLKPSETLSLTCAVYGGSFSDYYWNWIRQPPGKGLEWIGEINHNGNTNSNPSLKSRVTLSLDTSKNQFSLKLRSVTAADTAVYYCAFGYSDYEYNWFDPWGQGTLVTVSS
VL: EIVLTQSPATLSLSPGERATLSCRASQSISSYLAWYQQKPGQAPRLLIYDASNRATGIPARFSGSGSGTDFTLTISSLEPEDFAVYYCQQRSNWPLTFGQGTNLEIK
notes: also called LAG-2 mAb A
Work on B1 yielded a Kd [1] of 160 pM, a Kd [2] of 458000 pM and a Kd [3] of 600 pM.
